Assay results as given in publication PMC11579514, “Validation of NBD-coupled taurocholic acid for intravital analysis of bile acid transport in liver and kidney of mice” (EXCLI Journal, 2024).

Experiments:
[1] = substrate: C[C@H](CCC(=O)NCCS(=O)(=O)O)[C@H]1CC[C@H]2[C@@H]3[C@H](O)C[C@@H]4C[C@@H](Nc5ccc([N+](=O)[O-])c6nonc56)CC[C@]4(C)[C@H]3C[C@H](O)[C@]12C; assay: sodium-dependent fluorescent uptake kinetics (Km) in mNtcp-HEK cells; format: cell-based, Mus musculus; conditions: Na+
[2] = substrate: C[C@H](CCC(=O)NCCS(=O)(=O)O)[C@H]1CC[C@H]2[C@@H]3[C@H](O)C[C@@H]4C[C@@H](Nc5ccc([N+](=O)[O-])c6nonc56)CC[C@]4(C)[C@H]3C[C@H](O)[C@]12C; assay: sodium-dependent fluorescent uptake kinetics (Km) in mAsbt-HEK cells; format: cell-based, Mus musculus; conditions: Na+

Row | Protein | Km [1] [µM] | Km [2] [µM]
1 | mNtcp (mouse Na+/taurocholate co-transporting polypeptide) (Mus musculus) (protein, full open reading frame with C-terminal FLAG, stably expressed in HEK293) MEAHNVSAPFNFSLPPGFGHRATDTALSVILVVMLLLIMLSLGCTMEFSKIKAHFWKPKGVIIAIVAQYGIMPLSAFLLGKVFHLTSIEALAILICGCSPGGNLSNLFTLAMKGDMNLSIVMTTCSSFTALGMMPLLLYIYSKGIYDGDLKDKVPYKGIMLSLVMVLIPCAIGIFLKSKRPHYVPYVLKAGMIITFSLSVAVTVLSVINVGNSIMFVMTPHLLATSSLMPFTGFLMGYILSALFRLNPSCRRTISMETGFQNVQLCSTILNVTFPPEVIGPLFFFPLLYMIFQLAEGLLFIIIFRCYLKIKPQKDQTKITYKAAATEDATPAALEKGTHNGNNPPTQPGLSPNGLNSGQMAN | 23.3 | –
2 | mAsbt (mouse apical sodium-dependent bile acid transporter) (Mus musculus) (protein, full open reading frame with C-terminal FLAG, stably expressed in HEK293) MDNSSVCPPNATVCEGDSCVVPESNFNAILNTVMSTVLTILLAMVMFSMGCNVEVHKFLGHIKRPWGIFVGFLCQFGIMPLTGFILSVASGILPVQAVVVLIMGCCPGGTGSNILAYWIDGDMDLSVSMTTCSTLLALGMMPLCLFVYTKMWVDSGTIVIPYDSIGISLVALVIPVSFGMFVNHKWPQKAKIILKIGSITGVILIVLIAVIGGILYQSAWIIEPKLWIIGTIFPIAGYSLGFFLARLAGQPWYRCRTVALETGMQNTQLCSTIVQLSFSPEDLNLVFTFPLIYTVFQLVFAAVILGIYVTYRKCYGKNDAEFLEKTDNEMDSRPSFDETNKGFQPDEK | – | 19.1
